Source: PMC7363588, “Mapping of the FGF14:Nav1.6 complex interface reveals FLPK as a functionally active peptide modulating excitability” (Physiological Reports, 2020)

B1: CLuc-FGF14 [human] / CD4-Nav1.6 C-tail-NLuc [human] (parent)
chain 1: MVKPVPLFRRTDFKLLLCNHKDLFFLRVSKLLDCFSPKSMWFLWNIFSKGTHMLQCLCGKSLKKNKNPTDPQLKGIVTRLYCRQGYYLQMHPDGALDGTKDDSTNSTLFNLIPVGLRVVAIQGVKTGLYIAMNGEGYLYPSELFTPECKFKESVFENYYVIYSSMLYRQQESGRAWFLGLNKEGQAMKGNRVKKTKPAAHFLPKPLEVAMYREPSLHDVGETVPKPGVTPSKSTSASAIMNGGKPVNKSKTT
chain 2: IVVNMYIAIILENFSVATEESADPLSEDDFETFYEIWEKFDPDATQFIEYCKLADFADALEHPLRVPKPNTIELIAMDLPMVSGDRIHCLDILFAFTKRVLGDSGELDILRQQMEERFVASNPSKVSYEPITTTLRRKQEEVSAVVLQRAYRGHLARRGFICKKTTSNKLENGGTHREKKESTPSTASLPSYDSVTKPEKEKQQRAEEGRRERAKRQKEVRESKC

Variants of: B1
Test: split-luciferase complementation assay (LCA) in HEK293 cells
Conditions: with CD4-Nav1.6 C-tail-NLuc [human], DMSO vehicle control of the same pair = 100, read off a plot

Variant | screen value (% Luminescence (RLU)) (EYYV peptide 50 µM present) | screen value (% Luminescence (RLU)) (FLPK peptide 50 µM present) | screen value (% Luminescence (RLU)) (PLEV peptide 50 µM present)
chain 1 MVKPVPLFRRTDFKLLLCNHKDLFFLRVSKLLDCFSPKSMWFLWNIFSKGTHMLQCLCGKSLKKNKNPTDPQLKGIVTRLYCRQGYYLQMHPDGALDGTKDDSTNSTLFNLIPVGLRVVAIQGVKTGLYIAMNGEGYLYPSELFTPECKFKESVFENYYAIYSSMLYRQQESGRAWFLGLNKEGQAMKGNRVKKTKPAAHFLPKPLEVAMYREPSLHDVGETVPKPGVTPSKSTSASAIMNGGKPVNKSKTT [chain 1 V160A] | 93 | 91 | 94
chain 1 MVKPVPLFRRTDFKLLLCNHKDLFFLRVSKLLDCFSPKSMWFLWNIFSKGTHMLQCLCGKSLKKNKNPTDPQLKGIVTRLYCRQGYYLQMHPDGALDGTKDDSTNSTLFNLIPVGLRVVAIQGVKTGLYIAMNGEGYLYPSELFTPECKFKESVFENAYVIYSSMLYRQQESGRAWFLGLNKEGQAMKGNRVKKTKPAAHFLPKPLEVAMYREPSLHDVGETVPKPGVTPSKSTSASAIMNGGKPVNKSKTT [chain 1 Y158A] | 100 | 87 | 110

Second part, the variant after the results:

screen value (% Luminescence (RLU)) (EYYV peptide 50 µM present) | screen value (% Luminescence (RLU)) (FLPK peptide 50 µM present) | screen value (% Luminescence (RLU)) (PLEV peptide 50 µM present) | Variant
100 | 99 | 110 | chain 1 MVKPVPLFRRTDFKLLLCNHKDLFFLRVSKLLDCFSPKSMWFLWNIFSKGTHMLQCLCGKSLKKNKNPTDPQLKGIVTRLYCRQGYYLQMHPDGALDGTKDDSTNSTLFNLIPVGLRVVAIQGVKTGLYIAMNGEGYLYPSELFTPECKFKESVFENAYAIYSSMLYRQQESGRAWFLGLNKEGQAMKGNRVKKTKPAAHFLPKPLEVAMYREPSLHDVGETVPKPGVTPSKSTSASAIMNGGKPVNKSKTT [chain 1 Y158A V160A]
79 | 100 | 72 | chain 1 MVKPVPLFRRTDFKLLLCNHKDLFFLRVSKLLDCFSPKSMWFLWNIFSKGTHMLQCLCGKSLKKNKNPTDPQLKGIVTRLYCRQGYYLQMHPDGALDGTKDDSTNSTLFNLIPVGLRVVAIQGVKTGLYIAMNGEGYLYPSELFTPECKFKESVFENNYNIYSSMLYRQQESGRAWFLGLNKEGQAMKGNRVKKTKPAAHFLPKPLEVAMYREPSLHDVGETVPKPGVTPSKSTSASAIMNGGKPVNKSKTT [chain 1 Y158N V160N]
